Experimental data taken from the supplement of paper PMC10567573.

B1: PLAGL1 (parent)
chain: TKEKKHQCDHCERCFYTRKDVRRH

Variants of: B1
Assay: protein stability index of a GFP-peptide fusion (GPS, HEK-293T) (PSI 1-6); higher = more stable
Conditions: c terminus: a fixed tail appended
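Note: lentivirally expressed fusions sorted by FACS into six bins by GFP to DsRed ratio, PSI derived from sequencing read proportions per bin multiplied by bin number.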

Variant | protein stability index
TKEKKHQCDHCEPCFYTRKDVRRH [R13P] | 2.75
TKEKKHQCDHCEKCFYTRKDVRRH [R13K] | 3.54
TKEKKHQCDHCEDCFYTRKDVRRH [R13D] | 3.79
TKEKKHQCDHCEACFYTRKDVRRH [R13A] | 3.77
TKEKKHQCDHCEHCFYTRKDVRRH [R13H] | 3.87
TKEKKHQCDHCEMCFYTRKDVRRH [R13M] | 3.26
TKEKKHQCDHCETCFYTRKDVRRH [R13T] | 3.06
TKEKKHQCDHCEVCFYTRKDVRRH [R13V] | 3.41
TKEKKHQCDHCEGCFYTRKDVRRH [R13G] | 3.25
TKEKKHQCDHCEYCFYTRKDVRRH [R13Y] | 2.63
TKEKKHQCDHCECCFYTRKDVRRH [R13C] | 3.39
TKEKKHQCDHCEICFYTRKDVRRH [R13I] | 2.62
TKEKKHQCDHCEECFYTRKDVRRH [R13E] | 3.66
TKEKKHQCDHCEQCFYTRKDVRRH [R13Q] | 4.24
TKEKKHQCDHCELCFYTRKDVRRH [R13L] | 3.27
TKEKKHQCDHCEFCFYTRKDVRRH [R13F] | 3
TKEKKHQCDHCENCFYTRKDVRRH [R13N] | 3.81
TKEKKHQCDHCESCFYTRKDVRRH [R13S] | 3.35
TKEKKHQCDHCEWCFYTRKDVRRH [R13W] | 2.61
TKEKKHQCDHCERCGYTRKDVRRH [F15G] | 2.83
TKEKKHQCDHCERCQYTRKDVRRH [F15Q] | 3.79
TKEKKHQCDHCERCPYTRKDVRRH [F15P] | 3.06
TKEKKHQCDHCERCTYTRKDVRRH [F15T] | 4.24
TKEKKHQCDHCERCAYTRKDVRRH [F15A] | 3.79

Variant | protein stability index
TKEKKHQCDHCERCRYTRKDVRRH [F15R] | 3.77
TKEKKHQCDHCERCLYTRKDVRRH [F15L] | 3.9
TKEKKHQCDHCERCSYTRKDVRRH [F15S] | 3.05
TKEKKHQCDHCERCCYTRKDVRRH [F15C] | 2.83
TKEKKHQCDHCERCNYTRKDVRRH [F15N] | 3.48
TKEKKHQCDHCERCKYTRKDVRRH [F15K] | 3.94
TKEKKHQCDHCERCMYTRKDVRRH [F15M] | 4.05
TKEKKHQCDHCERCEYTRKDVRRH [F15E] | 3.61
TKEKKHQCDHCERCHYTRKDVRRH [F15H] | 3.46
TKEKKHQCDHCERCDYTRKDVRRH [F15D] | 2.98
TKEKKHQCDHCERCIYTRKDVRRH [F15I] | 3.62
TKEKKHQCDWCERCFYTRKDVRRH [H10W] | 2.67
TKEKKHQCDYCERCFYTRKDVRRH [H10Y] | 2.46
TKEKKHQCDHTERCFYTRKDVRRH [C11T] | 3.24
TKEKKHQCDHRERCFYTRKDVRRH [C11R] | 4.11
TKEKKHQCDHKERCFYTRKDVRRH [C11K] | 3.86
TKEKKHQCDHEERCFYTRKDVRRH [C11E] | 4.31
TKEKKHQCDHMERCFYTRKDVRRH [C11M] | 3.57
TKEKKHQCDHVERCFYTRKDVRRH [C11V] | 3.73
TKEKKHQCDHHERCFYTRKDVRRH [C11H] | 3.31
TKEKKHQCDHSERCFYTRKDVRRH [C11S] | 3.42
TKEKKHQCDHGERCFYTRKDVRRH [C11G] | 3.61
TKEKKHQCDHYERCFYTRKDVRRH [C11Y] | 3.22
TKEKKHQCDHDERCFYTRKDVRRH [C11D] | 3.96

Variant | protein stability index
TKEKKHQCDHIERCFYTRKDVRRH [C11I] | 3.65
TKEKKHQCDHFERCFYTRKDVRRH [C11F] | 3.27
TKEKKHQCDHAERCFYTRKDVRRH [C11A] | 3.62
TKEKKHQCDHWERCFYTRKDVRRH [C11W] | 3.46
TKEKKHQCDHLERCFYTRKDVRRH [C11L] | 3.71
TKEKKHQCDHQERCFYTRKDVRRH [C11Q] | 3.91
TKEKKHQCDHPERCFYTRKDVRRH [C11P] | 3.98
TKEKKHQCDHNERCFYTRKDVRRH [C11N] | 3.39
TKEKKHQCDHCCRCFYTRKDVRRH [E12C] | 3.27
TKEKKHQCDHCSRCFYTRKDVRRH [E12S] | 3.03
TKEKKHQCDHCNRCFYTRKDVRRH [E12N] | 3.19
TKEKKHQCDHCRRCFYTRKDVRRH [E12R] | 3.15
TKEKKHQCDHCFRCFYTRKDVRRH [E12F] | 3.12
TKEKKHQCDHCGRCFYTRKDVRRH [E12G] | 4.02
TKEKKHQCDHCARCFYTRKDVRRH [E12A] | 3.05
TKEKKHQCDHCYRCFYTRKDVRRH [E12Y] | 3.3
TKEKKHQCDHCWRCFYTRKDVRRH [E12W] | 2.69
TKEKKHQCDHCTRCFYTRKDVRRH [E12T] | 3.15
TKEKKHQCDHCPRCFYTRKDVRRH [E12P] | 4.17
TKEKKHQCDHCMRCFYTRKDVRRH [E12M] | 3.15
TKEKKHQCDHCHRCFYTRKDVRRH [E12H] | 3.34
TKEKKHQCDHCLRCFYTRKDVRRH [E12L] | 3
TKEKKHQCDHCDRCFYTRKDVRRH [E12D] | 3.6
TKEKKHQCDHCVRCFYTRKDVRRH [E12V] | 3.24

Variant | protein stability index
TKEKKHQCDHCIRCFYTRKDVRRH [E12I] | 2.89
TKEKKHQCDHCQRCFYTRKDVRRH [E12Q] | 3.15
TKEKKHQCDHCKRCFYTRKDVRRH [E12K] | 3.09
TKEKKHQCDHCERWFYTRKDVRRH [C14W] | 3.65
TKEKKHQCDHCERPFYTRKDVRRH [C14P] | 3.29
TKEKKHQCDHCERLFYTRKDVRRH [C14L] | 3.06
TKEKKHQCDHCERYFYTRKDVRRH [C14Y] | 3.27
TKEKKHQCDHCERAFYTRKDVRRH [C14A] | 3.11
TKEKKHQCDHCERRFYTRKDVRRH [C14R] | 3.16
TKEKKHQCDHCEREFYTRKDVRRH [C14E] | 3.69
TKEKKHQCDHCERHFYTRKDVRRH [C14H] | 3.12
TKEKKHQCDHCERTFYTRKDVRRH [C14T] | 3.6
TKEKKHQCDHCERNFYTRKDVRRH [C14N] | 3.25
TKEKKHQCDHCERSFYTRKDVRRH [C14S] | 3.28
TKEKKHQCDHCERIFYTRKDVRRH [C14I] | 2.65
TKEKKHQCDHCERVFYTRKDVRRH [C14V] | 3.42
TKEKKHQCDHCERDFYTRKDVRRH [C14D] | 3.54
TKEKKHQCDHCERKFYTRKDVRRH [C14K] | 3.78
TKEKKHQCDHCERMFYTRKDVRRH [C14M] | 3.52
TKEKKHQCDHCERQFYTRKDVRRH [C14Q] | 3.41
TKEKKHQCDHCERGFYTRKDVRRH [C14G] | 4.02
TKEKKHQCDHCERFFYTRKDVRRH [C14F] | 3.18
